The nature of data set [1]: folding stability dG unfold from trypsin proteolysis; higher = more stable. In outline:
(§1)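 Designed mini-proteins (under 80 residues, no cysteine) in a PA-tagged cDNA display construct were digested with trypsin and chymotrypsin. Each protease was used at 11 concentrations (threefold dilutions) plus a no-protease condition, followed by sequencing. K50 was inferred by Bayesian fitting of sequencing counts, and unfolding free energy was derived against a sequence-predicted unfolded-state K50 and a shared folded-state K50, per protease or combined. Only designs with AlphaFold2 dimer inter-PAE above 15 were kept.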

A short description of data set [2]: folding stability dG unfold from chymotrypsin proteolysis; higher = more stable. In outline: as §1
Data set [3] is described as follows: folding stability dG unfold (combined trypsin and chymotrypsin); higher = more stable. In outline:
as §1

± gives the half width of the 95% confidence interval.

Regarding “SKTIEIEIRVGGELYRIKIKVKRKGEPEEEIELTVPAGMSIEEIAARLKELYPDLKVEIVEIERLPPPEPSA [r9_364_TrROS_Hall]”, the “folding stability dG unfold” value in data set [1] was found to be 2.98 ± 0.072 kcal/mol; in data set [2] it was 4.17 ± 0.11 kcal/mol; in data set [3] it was 3.86 ± 0.082 kcal/mol.
The matching figures for “SKTIMIPANMPIDFIRKIARNAAKNGPPVKITIMIPDNPKIKEWLEEAGFPVEIERNKENNMQMITIEVPSA [r9_759_TrROS]”: 1.8 ± 0.029 kcal/mol, 1.95 ± 0.028 kcal/mol and 1.91 ± 0.07 kcal/mol.
For “SKTLTLEVEVPEGPVRIVVEASDGSRLEAEVPADEKVTFTIPIPPDIPEETKVTVRVYNPETGEVTELEASA [r9_275_TrMRF]”, the “folding stability dG unfold” value in data set [1] turned out to be 0.353 ± 0.063 kcal/mol; in data set [2], 1.11 ± 0.069 kcal/mol; in data set [3], 0.789 ± 0.066 kcal/mol.
With “SKTVIIEVPAKDLDKIKELIKKLKPGQKVKIVFKDANGKLITVTIEVKPAPPPKISLEELSEEQRKALEKSA [r9_1103_TrROS_Hall]”, the “folding stability dG unfold” value in data set [1] was 1.53 ± 0.081 kcal/mol; in data set [2], 1.89 ± 0.23 kcal/mol; in data set [3], 1.79 ± 0.28 kcal/mol.
Regarding “SKVEIEVERLPDGTLLVRATAEIPGIPGEKIELAVLVRLPAPERVEVRLLAAPPVETVTETRTYSEEEKKSA [r9_1009_TrROS_Hall]”, the entries for the “folding stability dG unfold” value in data set [1], in data set [2] and in data set [3] were 1.27 ± 0.12 kcal/mol, 1.52 ± 0.11 kcal/mol and 1.46 ± 0.17 kcal/mol, respectively.
In the case of “SKVKVYIIKKDKVIPEIELDVSSVEEAVEKVLEYISKLPKNTPYLVRIEVEKYDPATGKKSYGTLLLPVGSA [r9_245_TrMRF]”, the entries for the “folding stability dG unfold” value in data set [1], in data set [2] and in data set [3] were 2.76 ± 0.048 kcal/mol, 4.53 ± 0.095 kcal/mol and 4.05 ± 0.1 kcal/mol, respectively.
For “SKVTIYFPNMPPEEIIDAIRKNPGKPVEIWMMPNNPDRFKNWLQDAKIEVEPQPNPDGQPWVKMEIEVPDSA [r9_1138_TrROS]”, the “folding stability dG unfold” value in data set [1] came to 0.571 ± 0.035 kcal/mol; in data set [2], 0.969 ± 0.095 kcal/mol; in data set [3], 0.794 ± 0.078 kcal/mol.
On the same counts, the results for “SKYVQVRFPNYTIMVKKRKSPNGKPEVEVMLYNPPNGKMIPVEVKSPEDAEEAVKDAIRAMFPDEELRDLSA [r9_749_TrROS]” are 0.827 ± 0.09 kcal/mol, 0.46 ± 0.47 kcal/mol and 0.687 ± 0.17 kcal/mol.
Consider “SLEVARELGLPVERAIPTSVDPFNGRTHLVVLVSLPSRFVRIEVDVRYEPDPDGRLIPRVEVLRIEVFPESA [r9_613_TrMRF]”, for which the “folding stability dG unfold” value in data set [1] is 2.59 ± 0.048 kcal/mol; in data set [2], 3.67 ± 0.04 kcal/mol; in data set [3] it was 3.21 ± 0.05 kcal/mol.
With “SLKNGDPIMVKIEIEQYNPKNGKPQEQKHSIMIPPGDPVTINIPGLPPGYKVRVEIYPMDGKPIGEHTIPSA [r9_478_TrROS]”, the “folding stability dG unfold” value in data set [1] was determined as 1.73 ± 0.12 kcal/mol; in data set [2], 1.14 ± 0.047 kcal/mol; in data set [3], 1.48 ± 0.14 kcal/mol.
On the same counts, the results for “SLKPGEPRTVEMTMIIPITPDEIAKLFGLDIPPGTYIMVEMRMRVPPNADIEMDPDIHLYDPDDNKWFPISA [r9_349_TrROS]” are 2.18 ± 0.089 kcal/mol, 3.29 ± 0.086 kcal/mol and 2.86 ± 0.22 kcal/mol.
The matching figures for “SLLENLKIEEIKEYTLPDGSPAIVIRFGDYTIVFNPGTGELRIYKGDKIIRTITIPFPIPDPNKPEDLAASA [r9_1065_TrMRF]”: 3.22 ± 0.16 kcal/mol, 3.405 ± 0.034 kcal/mol and 3.28 ± 0.084 kcal/mol.
In the case of “SLPNRPLVPFELELRLPRFEVRVRLYRLPDGSYLLVAEIRFPNGLTARAEFVLDPVTGRIYLVRVEVRPESA [r9_795_TrMRF]”, the “folding stability dG unfold” value was found to be 3.82 ± 0.041 kcal/mol in data set [1], 4.56 ± 0.05 kcal/mol in data set [2] and 4.29 ± 0.05 kcal/mol in data set [3].
On the same counts, the results for “SLPYTPSTAELTLTLPGGEVKVKANVYTLPDGSTITIATFPDGSVAVYDPSLGRLVLYDPSTGKPIAVLGSA [r9_970_TrMRF]” are 2.41 ± 0.038 kcal/mol, 2.173 ± 0.013 kcal/mol and 2.32 ± 0.028 kcal/mol.
As to “SLSITVPPDKGLVLVNEGLKDGKVKLFLDDKVEEVEVPAGETLVFEVPPDYKGFKLEVIGDDGVVLSVDGSA [r9_143_TrMRF]”, the “folding stability dG unfold” value in data set [1] was found to be 0.627 ± 0.13 kcal/mol; in data set [2] it was 0.322 ± 0.29 kcal/mol; in data set [3] it was 0.599 ± 0.22 kcal/mol.

(Values after the supplement of paper PMC12764529.)
